Assay results: PMC10691555

Experiments:
[1] = molecular target: recombinant Her2, biotinylated (UniProt P04626); test: plate binding titration of dye-labelled affibody
[2] = molecular target: Her2 on SK-BR-3 cells (human (endogenous in SK-BR-3)) (UniProt P04626); test: flow cytometry on cells
[3] = molecular target: recombinant Her2, biotinylated (UniProt P04626); test: SPR

Kd [1]: 11 nM
Kd [2]: 7.12 nM
Kd [3]: 0.115 nM
Substance: Her2-specific affibody ZHer2:2891 conjugated with AlexaFluor 488nm dye (designed binder)
